Measured values from the DeepSol protein solubility set.

Assay: soluble on expression in E. coli; label from the status in PepcDB or PDB records

Soluble on expression in E. coli, not soluble:
MGSDKIHHHHHHMHRLPPLRAIQVFDSVARNQSFSIAASQLAITQGAVSKQVKLLEEFYAEKLFIRCGTNIELTKKGTWLAYQLTPIFDQLNGICNFNSISRGKIRIATYPSLSLGYLTYEIEQFNSAHPNIDVEIILAINHPTMCDEIADLFITTEESIDGYHYQQLFQERLIPVISPKIINDTTIIKIKDLTGYTLLVTNGKENSDWQLWFNHHNLKPAIYQKMNMFSDALLSTRAAELGNGIALSCEVTAHRDIIDGRLCKVGLPSAPTGRRYFLCCKNRRRYEPNIKLLSDWINKKFIND
MGSDKIHHHHHHMHTQVNELFSELWQNYVSVTPSAAKIHALLGSSQQDDVQNDHIALRTFNIEKINLDKLAAHFLALGYKENGEYHFEAKKLYAKHYEHPDPTQPKVFISELLLEKCSPELQAIVHKLVDQIDVAAVTADNFLYSGRHWSIDQATYNTLVKESEYAAWVSVWGFRANHFTVSVNALKNFETLVSVNDTLKAAGFALNTSGGEIKGSQEVMLKQSSTLADEALVEFTDGSKMVPSCFYEFARRFPMADGTLYPGFVAASADKIFESTNAR
MGSDKIHHHHHHMHYEEGDDLVASSMTYSVKEMSMRNVRPVLLSLGLLSTVGIATAADTTTFNVKIAVTKACTITAASATDVDFGSVLSTSTANADANGSVTAQCTALTPYNIALSAGSNAGTANDVTTRRMKNTDALVTTNNFVAYQLYQDLGRSTVWGSTSGTNTLSRTATGINQIYPVYGRVTNPSAGNPATGTYQDTITATIIY
MGSDKIHHHHHHMIAQVEPFHAIAISRLAHDLEAAGQSVIHMEFGQPSTGAPAEAIALAHEVLDNEAMGYWESVPLKERIARSYAENHGVKVEREQVILTCGASPAFVMALSCLFRPGARIALARPGYVAYRNSLKAMYLEPVEMECGPAERFQVTAAAVDALDPVPDGLIVASPANPTGTIIEPGELAAIAEVCCRKGIRVISDEIYHGLSYGKAAASMLEYLPDAVIVNSFSKYFSMAGWRLGWLVVPPSLIDAARARMGSLFLTPPVLAQKAGLKAFDCRAELDGHVETYARNRAILLEALPQMGLGRIAPPDGAFYIYADASEFTDDSLALCEALLRDTGVATAPGLDFDPVNGKRFIRFSFAVSTPLIEEAVRRIGPWFAARRAVSPAQAPS
MGSDKIHHHHHHMIDFHVHTTFSDSTMTPAVAVRHAKMAGYRAVALTDHADHANMDLILRQTLPLARKYSLYAGIEVFAGVELTHVPPALIPEAVREARAMGAQLVLVHGETISDAVETGTNLAAIEGGVDILAHPGLVSDEDAAYAAERGVRFEITTRPGHALTNGHVAMAARRHGVRCVINNDAHHSRDFVNPDHRLAVALGAGLTTAEVTAAEAESRTLLGRLLREVR
MGSDKIHHHHHHMIDITDKQSCCGCSSCVQKCPRQCISLHEDTEGFLYPVVDKGDCIDCGLCEKVCPLLHWGEALVPMEVLAVKNKNQEERIHSSSGGVFIALSRQIIMDGGVVFGAVYDENWEVRITYSETLDGVRPMMGSKYLQARVETGFADAERFLKQGRYVLFSGTPCQIAGLHKYLRKDYPNLLSVDFLCHGVPSPGVWRRYLKETMSDLQSARRAAAGKNTVFPSLNVMPTIVGIEFRDKTLHGWKKYSFVVRGKSAFNADKNSVLLSDIHRENPFMRGFLSDIYLRPSCYECKCKNGVSHSDLTIADFWGIDRLMPDFDDDKGIGLALVNTVKGKQIFKRLSIDIRLSALSDVVALNGGFKEYRQPHPARLVFFRRFAVGETVESIVEDILRVPLWRRVMRNIKTFCKMIINRKQLTIIPLFIRRSKKRDK
MGSDKIHHHHHHMIDTFERTGPLMEASSYPAWAQQLINDCSPAKARVVEHELYQQMRDAKLSPQIMRQYLIGGWPVVEQFAVYMAKNLTKTRFGRHPGEDMARRWLMRNIRVELNHADYWVNWCAAHDVTLEDLHDQRVAPELHALSHWCWQTSSSDSLAVAMAATNYAIEGATGEWSAVVCSTGVYAEAFAEETRKKSMKWLKMHAQYDDAHPWEALEIICTLVGNKPSLQLQAELRQAVTKSYDYMYLFLERCIQLDKVKSPRGRVAALEM
MGSDKIHHHHHHMIDVEEILSKMNLNQKINYDRVMQKMVQVWEKNEQRPTILMHVCCAPCSTYTLEYLTKYADVTIYFANSNIHPKAEYHKRAYVTKKFVSDFNERTGNSVQYLEAPYEPNEYRKLVRGLEEEPEGGDRCQVCFDYRLDKTAQVAMDLGFDYFGSALTISPHKNSQTINSIGIDVQKIYTTHYLPSDFKKNQGYKRSVEMCEEYDIYRQCYCGCVYAAQAQNIDLVQVKKDATAFLLDKDVEKDYSHIKFTVTKLDI
MGSDKIHHHHHHMIEQELTYQDLRIPSSEIYEAMGYKDSIPDQMVIDETNTLLKRVIPLLRPRFAFFFMEGTLDIEKETLSVQSIHPPTVNPIQDTIPTRSPEQNTFSTQSKSTVFSVGKTIARQLRGSEAFVFFAATAGTEFEVFQHTLQQEEDMVKIYIADSLGSIIAEKTADCMEVALAEYIREKNWKHTNRYSPGYCGWHVSEQQKLFPLFPIAAPCGIRLTDSSLMVPIKSVSGVIGTGTNVRKLEYTCGLCTYENCYRKRKHR
MGSDKIHHHHHHMIFDGYEAYRAANFKPKVCILGSGPAGTTIARKLGAAGIPVVVLEAGSREFSDESQDFYRGTKVGDFYFDLDITRLRYMGGSSNHWAGWCRVLDKLDFEPKAWAPDTGWPIRRADIEPYLTEVRDILELPDFRPDVPISDDIRWVQLIKSPAVRFAEKFADELDKSGNIAVVLNTYATELAGDGKRVTGAKLWSNGQDAGAFSADYFIVCTGGLENSRLLLWSNQRSNGGVVPNATALGRYWMEHPTFEGGNAILADYGEFEVDAVNEAFFSPTLAAMERLRIMNFGIRLIETPYAGVKHVIADLACTAPDMAEWVAYQLSQNLRCAAQLYVAWEQAPLASNQIELSKTDVDHAGVPRIELHWKKSELERRTLVEGLKLFGTTLIEKDLGRVRLMDWIANGEDYPTDEETAGHHHMGGTRMGIDMTRSVVDANCKVHGMDNLYVGGSSVFCTSGQANPTTTITALACRLGEHLSKVVAV
MGSDKIHHHHHHMIGALYVVGPAGTGKSTFSGSLNEWLKRMEFDSAIINLDPGADYLPYEPDFDIREYISLDSIMSDYNLGPNGSQIVAADMIVSYTDKITEFLEDLDDYYVVVDTPGQIELFTFRTSSTEIVEKVSGQRSMMAYIADAPLATYPSGFIAQKMLYASVFSRFFRPMMFVLNKIDLVSDEDIQEVKKWESSPDLLNDAFMEEKGQMEKDYFVGILQAFKESNIMTKIYPVSSRDSFGFEDIYSQMALYFTGGEDNDTYREEG
MGSDKIHHHHHHMIGLRLDGYDPDLHHDAAVAFCIRARDDELFSPRHQHRKGQLILALHGAITCEVENAMWMVPPQYAVWLPGSLPHSNHVTAGAELCFLFIEPAAVVMPERCCTLKISPLCRELILSLARRTDPERAQMPTQRLIQVLFDELPQQPQEQLQLPVSGHPKIRQMVETMAQEPARWNTLGQWASVFAMSERNLARLVVKETGLSFRRWRHQLQLILALQALIAGRNVQQTAQMLGYDSTTAFITMFKKGLGQTPGQYLTGELLLPHN
MGSDKIHHHHHHMIHSETFAEIATLKERNLIALKEAREAGRHAVGTYCLFSPTELILAAGAIPVSLCGTSQKPIPAAEKVLPRNLCPLIKSSYGFAVTDTCPYFHFADFLLAETTCDGKKKMYELLGELKPIHVMQLPQIQDEAALDYWLMEIGRLKTRLEREFGVRITDKALTEAIRLMNEERRSLQALQDVCKAIPSPISGLDLLTVLHNRGFSVDRRAAIELVDRFAAELRQMAAAGISPFTESTPRILLTGVPVGVGSEKLIRIIEESGASVVCLESCGAYKKVEQVREGGDPLRAIAERYLKVPCSCMSPNTGRLELVERLTREFRVDGVVDLTWLGCHTYAVESSVLKKHLQQRTGLPFLQIETDYSESDTGQLKVRVEAFLEIVHRSMKRTA
MGSDKIHHHHHHMIIIIDEASAKLASFYYHDEIFKPQWKCAADMSSASDELHDEFQEKLQEKLPDELREKLYVVLPADESINDFQKTTIQESADNTAKANTGNLRIPKAPTDCIWIVSDRQQKQIADSLGIASVGEPQCGTRYAVESLAELDIEYLERVRRRYNHIPWDIGETDRCLIRELSLADLPALYELYDKPGMTDFVEPLYDYETELEYQKAYIENMYDFYEYGMWLVFSKETGKLIGRAGLEHNEMGYMIAPEFQNLGYATEVCRFIVDYARKNTDFEELYCRIDEKNVASVRLAKRLGFVRNGQIGNERNTGGLDRYVLSI
MGSDKIHHHHHHMIITLQDTETREISAKIDELHEERGEAALGRVLTLLISTNEAELEHDLEVANNASREHPCRVIAVAPSSRKISPEEEHPTFLDAEIRFGSDAGAGEIIVLRPRGGLVRHADTLVIPLLVPDAPVVAWWPNEAPANLSKDLLGSMASSRITDAMHSSNPRRTMDDLRRNRSAKDVDMSWTRLTVWRAMIASMLDQPPHLPVSNVRVTGQKDYLPLDLLAAWLRLRLNVPVMIEEDPNATAVTGVYLTRGDGVLSLERPSTDDGFAVISVPGQSPQTISVPARTLEECLSEELGRLYPDEIYSEVVSQGLDLVKPRQ
MGSDKIHHHHHHMIKLILSAPVPAMAVAFEHSFQNTENVEIIPGPFETIPEFDCMVSAANSFGLMDGGVDAAITAYFGPQLQERVQQHILREYLGEQPVGTAFVIETGNSKYPWLVHAPTMRVPLIIDGTDAVYNATRAALLAIFQHNKSAGEDRKIKSVVFPAMGAGCGQVSPGSVARQMKLAWDGFINCTTEINWQYASARQNAVFSTTAYCPSKALCPNARTEYIGFGDYRTYCKKSGNTCISPRHQVDDIYIGAHSHAVFLSPNSHGKHLKPEYLSGVKNDV
MGSDKIHHHHHHMILDERVNSNFDQLNDNDIQIAHYVNTHIDVCKNMKIQDLASQTHASNATIHRFTRKLGFDGYSDFKSFLKFEDSKNHQLPSDSMEQFKQEIENTFNYLERIDYRLLTHKMHHATTIYLYGTGRAQMNVAEEAQRILLTMHKNIILLHDVHELKMVLNKTIPEDLFFIISLSGETHQLKEVTQLLQLRQKYFISVTTMKDNTLAQQADYNVYVSSNTFYLNDGTDYSSFISYHIFFETLLRKYNEYKENHELT
MGSDKIHHHHHHMIMINKTKRLMVSRQVKIPRKTYFWGPTPNPGMHPKDQSVTLLSIIRDYLKLSDKEREAARILANGLVKVDGKTVREKKFAVGFMDVIEINGESYRVVYNDQGALVLMKETKERASMKLLKVRSKVIAPGNRIQLGTHDGRTFITDDKSKKVGDVWAVSVPDMKISEIIKMQPGNKAYITAGSHVNQTGTISKIEAKEGSSANLVHFQEGFSTIKDHVFMIGSSKFSFVLSPEEVIP
MGSDKIHHHHHHMIMLTVSDYLAQPVVSPDVSIRYGDHPDQFGDLYLPAQVHPAPVVMMIHGGCWQAAYPLTPLGECCAALRARGYAVWNLEYRRLGNGGGWPSTFLDVAAGADHLRVLAEHYPLDLNRVVVVGHSAGGHLALWLATRPKLPPTSPLYIPHPLPVHGVVALAAVADLRRGVTATACGTACLELIDNEESRCAEASPHARLPLDIPHYHLVGGDDPIVPASYVAAFVDAARQAGDLAHLTIVPKCGHFELTTPHSQAWQTVVQTIDKACSLNRS
MGSDKIHHHHHHMINTKNLNVFYNENKVLKDIQLEVIPGRITGIIGPNGAGKSTLIKAILNIVPHSGEILINGEVSKKQLKKIAYVEQKSDIDHTFPIKVKECVSLGTYTGLKLFQKLGAKEWSRVSEALQKVNLLDYENRQIGELSGGQFQRVLLARCLVQEADYIFLDEPFVGIDSISEKIIMDILQDLKHQGKTILIVHHDLSKVKEYFDDIIILNRELIAYGPINENFSQKNLKKAYGDNIFIGD
